First the molecules themselves.
B2: clone #84 (other, UniProt Q99675 1-332, looked up)
chain: MAAVFLVTLYEYSPLFYIAVVFTCFIVTTGLVLGWFGWDVPVILRNSEETQFSTRVFKKQMRQVKNPFGLEITNPSSASITTGITLTTDCLEDSLLTCYWGCSVQKLYEALQKHVYCFRISTPQALEDALYSEYLYQEQYFIKKDSKEEIYCQLPRDTKIEDFGTVPRSRYPLVALLTLADEDDREIYDIISMVSVIHIPDRTYKLSCRILYQYLLLAQGQFHDLKQLFMSANNNFTPSNNSSSEEKNTDRSLLEKVGLSESEVEPSEENSKDCVVCQNGTVNWVLLPCRHTCLCDGCVKYFQQCPMCRQFVQESFALCSQKEQDKDKPKTL
notes: Isolated from the B-cell cDNA library with full-length RAP-2 as bait; The whole CGR19 entry is named; also called CGR19; Cell Growth Regulatory protein CGR19

Experiment [1] has as its target T1, RAP-2 (RIP-associated protein-2), full-length (human, UniProt Q9Y6K9 1-419).
T1 construct: Full-length RAP-2; The RIP screen first yielded a partial clone of about 1.5 Kb; also called 303; RAP-303
The experiment can be described thus: deletion analysis, self-association of RAP-2.

For experiment [2], the target named is T2, RIP (receptor interacting protein) (human, UniProt Q13546 1-671).
T2 construct: mature; Full-length RIP was the two-hybrid bait; In co-immunoprecipitation it was pulled down with anti-FLAG mAbs (FLAG tag implied); also called RIP protein
T2 sequence (looked up): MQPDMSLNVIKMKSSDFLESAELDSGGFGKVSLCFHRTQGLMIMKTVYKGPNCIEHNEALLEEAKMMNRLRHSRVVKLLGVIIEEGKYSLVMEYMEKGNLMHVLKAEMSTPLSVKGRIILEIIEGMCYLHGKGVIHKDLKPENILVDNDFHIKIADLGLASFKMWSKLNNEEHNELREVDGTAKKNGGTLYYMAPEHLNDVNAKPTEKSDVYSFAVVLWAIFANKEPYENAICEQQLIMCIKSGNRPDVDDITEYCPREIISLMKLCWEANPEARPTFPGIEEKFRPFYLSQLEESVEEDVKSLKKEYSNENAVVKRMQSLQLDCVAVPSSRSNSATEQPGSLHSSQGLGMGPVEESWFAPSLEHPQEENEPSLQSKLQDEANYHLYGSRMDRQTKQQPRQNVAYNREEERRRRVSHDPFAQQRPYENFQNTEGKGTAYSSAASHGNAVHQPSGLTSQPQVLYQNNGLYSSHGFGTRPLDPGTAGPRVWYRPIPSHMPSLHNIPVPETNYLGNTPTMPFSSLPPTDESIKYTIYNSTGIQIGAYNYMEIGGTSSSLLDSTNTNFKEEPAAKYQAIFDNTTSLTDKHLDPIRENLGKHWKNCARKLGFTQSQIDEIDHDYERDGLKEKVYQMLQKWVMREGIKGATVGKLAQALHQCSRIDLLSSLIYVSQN
Put plainly: yeast two-hybrid test.

In the next experiment the target is NIK (UniProt Q99558 1-947). The experiment can be described thus: yeast two-hybrid test.
Experiment [3] concerns the target T3, TIP60 (histone acetyltransferase) (UniProt Q92993 1-513, limits assumed). Put plainly: yeast two-hybrid test.
In another experiment the target is T4, TRAF2 (UniProt Q12933 1-501, limits assumed).
T4 sequence (looked up): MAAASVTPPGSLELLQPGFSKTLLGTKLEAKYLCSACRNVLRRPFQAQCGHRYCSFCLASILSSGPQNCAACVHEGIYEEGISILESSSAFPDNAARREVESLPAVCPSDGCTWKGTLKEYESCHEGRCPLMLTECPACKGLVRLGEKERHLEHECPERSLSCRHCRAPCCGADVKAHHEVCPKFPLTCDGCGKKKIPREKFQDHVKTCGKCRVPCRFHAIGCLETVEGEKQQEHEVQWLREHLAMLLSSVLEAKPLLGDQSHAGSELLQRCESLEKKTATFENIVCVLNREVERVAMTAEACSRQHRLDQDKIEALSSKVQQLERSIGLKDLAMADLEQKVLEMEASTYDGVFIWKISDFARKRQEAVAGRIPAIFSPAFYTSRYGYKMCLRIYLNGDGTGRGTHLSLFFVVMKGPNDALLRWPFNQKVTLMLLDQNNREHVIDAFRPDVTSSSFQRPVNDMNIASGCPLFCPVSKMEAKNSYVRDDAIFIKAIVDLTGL
The experiment can be described thus: yeast two-hybrid test.

Experiment [4] concerns the target T1, RAP-2 (RIP-associated protein-2), …. The experiment can be described thus: binding assay tests (two-hybrid).
In the experiment “clone #84” the target is B2. The experiment can be described thus: yeast two-hybrid test.
For experiment [5], the target named is T3, TIP60 (histone acetyltransferase). Put plainly: deletion analysis of RAP-2.

We go through eight molecules from patent publication US20040219615A1 (YEDA RESEARCH AND DEVELOPMENT, published 2004).

T3 sequence (Q92993 whole entry): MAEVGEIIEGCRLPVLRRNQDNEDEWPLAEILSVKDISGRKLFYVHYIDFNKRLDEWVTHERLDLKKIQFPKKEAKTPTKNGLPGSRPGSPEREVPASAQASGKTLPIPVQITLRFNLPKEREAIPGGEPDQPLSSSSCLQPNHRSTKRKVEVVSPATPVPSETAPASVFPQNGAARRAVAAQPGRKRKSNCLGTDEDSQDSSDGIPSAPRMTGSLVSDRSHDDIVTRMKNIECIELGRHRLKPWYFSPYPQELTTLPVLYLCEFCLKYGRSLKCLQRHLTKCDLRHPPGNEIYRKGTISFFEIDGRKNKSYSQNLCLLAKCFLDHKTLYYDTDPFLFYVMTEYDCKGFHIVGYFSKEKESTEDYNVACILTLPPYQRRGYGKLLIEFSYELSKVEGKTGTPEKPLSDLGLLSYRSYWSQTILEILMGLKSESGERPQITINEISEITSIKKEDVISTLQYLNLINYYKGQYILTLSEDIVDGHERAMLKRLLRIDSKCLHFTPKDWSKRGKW
Chain of NIK (Q99558 whole entry): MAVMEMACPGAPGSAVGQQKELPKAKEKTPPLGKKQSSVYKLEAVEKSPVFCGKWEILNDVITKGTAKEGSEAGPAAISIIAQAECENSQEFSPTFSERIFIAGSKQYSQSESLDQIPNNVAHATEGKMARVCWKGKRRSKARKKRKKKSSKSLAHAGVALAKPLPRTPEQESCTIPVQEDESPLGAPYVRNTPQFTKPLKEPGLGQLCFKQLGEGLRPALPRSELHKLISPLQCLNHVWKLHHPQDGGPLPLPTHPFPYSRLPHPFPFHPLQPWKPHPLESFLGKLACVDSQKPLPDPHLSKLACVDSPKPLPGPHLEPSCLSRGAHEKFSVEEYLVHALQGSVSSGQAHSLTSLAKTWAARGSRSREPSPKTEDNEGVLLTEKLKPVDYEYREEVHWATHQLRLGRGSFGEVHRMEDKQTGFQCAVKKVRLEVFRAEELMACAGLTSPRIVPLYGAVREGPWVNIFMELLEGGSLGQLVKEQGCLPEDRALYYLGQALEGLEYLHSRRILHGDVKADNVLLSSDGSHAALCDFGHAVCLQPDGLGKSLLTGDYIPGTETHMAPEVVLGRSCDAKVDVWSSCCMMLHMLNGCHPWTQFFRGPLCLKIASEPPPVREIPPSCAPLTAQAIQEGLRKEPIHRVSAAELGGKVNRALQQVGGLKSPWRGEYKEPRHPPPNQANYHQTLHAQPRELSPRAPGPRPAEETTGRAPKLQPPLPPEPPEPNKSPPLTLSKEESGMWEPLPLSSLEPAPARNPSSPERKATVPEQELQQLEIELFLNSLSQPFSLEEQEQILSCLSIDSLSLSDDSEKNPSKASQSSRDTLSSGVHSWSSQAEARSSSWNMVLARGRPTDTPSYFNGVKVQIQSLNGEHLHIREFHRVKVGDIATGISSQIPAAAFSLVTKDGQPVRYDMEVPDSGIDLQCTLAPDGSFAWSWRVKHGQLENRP

B1: RAP-2 deletion fragment containing amino acids 218-416 (other)
chain: QAASEEKRKLAQLQVAYHQLFQEYDNHIKSSVVGSERKRGMQLEDLKQQLQQAEEALVAKQEVIDKLKEEAEQHKIVMETVPVLKAQADIYKADFQAERQAREKLAEKKELLQEQLEQLQREYSKLKASCQESARIEDMRKRHVEVSQAPLPPAPAYLSSPLALPSQRRSPPEEPPDFCCPKCQYQAPDMDTLQIHVME
With B1, in experiment [1], the binding result is “binds”. On to B2, for which the binding result (in experiment [2]; with NIK; in experiment [3]; with TRAF2) was “no binding” in each case.

B3: RAP-2 deletion fragment containing amino acids 1-264 (other)
chain: MNRHLWKSQLCEMVQPSGGPAADQDVLGEESPLGKPAMLHLPSEQGAPETLQRCLEENQELRDAIRQSNQILRERCEELLHFQASQREEKEFLMCKFQEARKLVERLGLEKLDLKRQKEQALREVEHLKRCQQQMAEDKASVKAQVTSLLGELQESQSRLEAATKECQALEGRARAASEQARQLESEREALQQQHSVQVDQLRMQGQSVEAALRMERQAASEEKRKLAQLQVAYHQLFQEYDNHIKSSVVGSERKRGMQLEDLK
B3: the binding result in experiment [1] is on record as “binds”.

B4: TRADD (other, UniProt Q15628 1-312, looked up)
chain: MAAGQNGHEEWVGSAYLFVESSLDKVVLSDAYAHPQQKVAVYRALQAALAESGGSPDVLQMLKIHRSDPQLIVQLRFCGRQPCGRFLRAYREGALRAALQRSLAAALAQHSVPLQLELRAGAERLDALLADEERCLSCILAQQPDRLRDEELAELEDALRNLKCGSGARGGDGEVASAPLQPPVPSLSEVKPPPPPPPAQTFLFQGQPVVNRPLSLKDQQTFARSVGLKWRKVGRSLQRGCRALRDPALDSLAYEYEREGLYEQAFQLLRRFVQAEGRRATLQRLVEALEENELTSLAEDLLGLTDPNGGLA
With B4, the binding result (in experiment [4]; in the experiment with clone #84) was “no binding” each time.

B5: p55-R (p55 TNF receptor) (receptor, UniProt P19438 235-455, looked up)
chain: RYQRWKSKLYSIVCGKSTPEKEGELEGTTTKPLAPNPSFSPTPGFTPTLGFSPVPSSTFTSSSTYTPGDCPNFAAPRREVAPPYQGADPILATALASDPIPNPLQKWEDSAHKPQSLDTDDPATLYAVVENVPPLRWKEFVRRLGLSDHEIDRLELQNGRCLREAQYSMLATWRRRTPRREATLELLGRVLRDMDLLGCLEDIEEALCGPAALPPAPSLLR
notes: also called TNFR-I
As for B5, the binding result in experiment [4] is on record as “no binding”.

B6: MORT-1 (other, UniProt Q13158 1-208, looked up)
chain: MDPFLVLLHSVSSSLSSSELTELKFLCLGRVGKRKLERVQSGLDLFSMLLEQNDLEPGHTELLRELLASLRRHDLLRRVDDFEAGAAAGAAPGEEDLCAAFNVICDNVGKDWRRLARQLKVSDTKIDSIEDRYPRNLTERVRESLRIWKNTEKENATVAHLVGALRSCQMNLVADLVQEVQQARDLQNRSGAMSPMSWNSDASTSEAS
notes: also called FADD
As for B6, the binding result (in experiment [4]; in the experiment with clone #84) was “no binding” each time.

B7: p75-R (p75 TNF receptor) (receptor, UniProt P20333 287-461, looked up)
chain: VKKKPLCLQREAKVPHLPADKARGTQGPEQQHLLITAPSSSSSSLESSASALDRRAPTRNQPQAPGVEASGAGEARASTGSSDSSPGGHGTQVNVTCIVNVCSSSDHSSQCSSQASSTMGDTDSSPSESPKDEQVPFSKEECAFRSQLETPETLLGSTEEKPLPLGVPDAGMKPS
B7: the binding result in experiment [4] was “no binding”.

B8: RAP-2 deletion fragment spanning amino acids 95-309 (other)
chain: CKFQEARKLVERLGLEKLDLKRQKEQALREVEHLKRCQQQMAEDKASVKAQVTSLLGELQESQSRLEAATKECQALEGRARAASEQARQLESEREALQQQHSVQVDQLRMQGQSVEAALRMERQAASEEKRKLAQLQVAYHQLFQEYDNHIKSSVVGSERKRGMQLEDLKQQLQQAEEALVAKQEVIDKLKEEAEQHKIVMETVPVLKAQADIYK
In the case of B8, in experiment [5], the binding result was “no binding”.
